From publication PMC10360031 (ACS Applied Materials & Interfaces, 2023)

Target: T1, wild-strain SARS-CoV-2 spike protein RBD (SARS-CoV-2, UniProt P0DTC2)
T1 construct: also called S1 RBD; wild-type strain S1 RBD
Assay: AFM single-molecule force spectroscopy
Details: one partner purified

B1: cell-surface vimentin (CSV) on mouse embryonic fibroblasts mEF +/+ (natural protein)
chain: not shown
notes: also called extracellular Vim; native extracellular Vim; source: endogenous, on live mEF +/+ cells
- koff: 0.19 ± 0.07 s⁻¹
